According to paper PMC2807034, “An Autoinhibitory Tyrosine Motif in the Cell-Cycle-Regulated Nek7 Kinase Is Released through Binding of Nek9” (Molecular Cell, 2009):

What was measured:
Assay in all cases: pull-down; GST-fusion protein (20 pmol) immobilised on glutathione Sepharose 4B beads; incubated with 1 ml of 3.5 uM Nek7 protein for 2 hr; PD buffer (20 mM HEPES pH 7.5, 150 mM NaCl, 0.05% Tween 20); three 30 min washes at 4°C; anti-His6 immunoblot
Settings in all cases: both partners purified
Nek7-N33D = target: T1, Nek7-N33D (human, UniProt Q8TDX7 1-302, N33D)
T1 construct: Nek7, human, point mutant of the full-length His6 construct (QuikChange); also called ND; source: bacterially expressed and purified; not shown: His6, C-terminal, kept
T1 sequence (Q8TDX7 whole entry N33D): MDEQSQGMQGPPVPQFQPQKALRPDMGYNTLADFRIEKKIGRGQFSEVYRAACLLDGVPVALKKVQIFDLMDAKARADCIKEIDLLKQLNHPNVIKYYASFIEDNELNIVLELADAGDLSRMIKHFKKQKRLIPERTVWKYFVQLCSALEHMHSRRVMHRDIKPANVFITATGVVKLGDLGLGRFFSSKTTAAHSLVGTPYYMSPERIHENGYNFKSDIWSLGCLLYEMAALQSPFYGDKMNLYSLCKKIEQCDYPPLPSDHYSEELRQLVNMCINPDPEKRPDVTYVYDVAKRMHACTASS

Nek7-Y28A/L31A = target: T2, Nek7-Y28A/L31A (human, UniProt Q8TDX7 1-302, Y28A | L31A)
T2 construct: Nek7, human, double point mutant of the full-length His6 construct (QuikChange); also called YA/LA; source: bacterially expressed and purified; not shown: His6, C-terminal, kept
T2 sequence (Q8TDX7 whole entry Y28A/L31A): as the sequence (Q8TDX7 whole entry N33D) above, with Y28A, L31A, D33N counted along it

[1] = target: T3, Nek7, wild-type, full-length human protein with C-terminal His6 tag (human, UniProt Q8TDX7 1-302)
T3 construct: Nek7 (NIMA-related kinase 7), human, full-length (35 kDa), cloned into pET30; The His6 tag is uncleavable; also called Nek7-WT; WT; source: E. coli Codonplus RPIL, coexpressed with lambda phosphatase, purified (HisTRAP, then dialysis or gel filtration); not shown: His6, C-terminal, kept
T3 sequence (Q8TDX7 whole entry): as the sequence (Q8TDX7 whole entry N33D) above, with D33N counted along it

[2] = target: T4, Nek7-Δ20, N-terminal truncation of Nek7 starting at residue 20 (human, UniProt Q8TDX7 20-302)
T4 construct: Nek7, human, truncation starting at residue 20; source: bacterially expressed and purified
T4 sequence (Q8TDX7 20-302, stated change not applied): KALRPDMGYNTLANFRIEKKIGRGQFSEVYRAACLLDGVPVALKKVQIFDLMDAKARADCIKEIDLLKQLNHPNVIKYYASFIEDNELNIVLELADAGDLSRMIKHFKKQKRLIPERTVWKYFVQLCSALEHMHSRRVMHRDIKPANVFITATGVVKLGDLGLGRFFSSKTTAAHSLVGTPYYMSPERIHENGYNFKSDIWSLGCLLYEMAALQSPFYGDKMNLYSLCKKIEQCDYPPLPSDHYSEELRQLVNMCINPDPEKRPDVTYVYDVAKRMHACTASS

[3] = target: T5, Nek7-Δ30, N-terminal truncation of Nek7 starting at residue 30 (human, UniProt Q8TDX7 30-302)
T5 construct: Nek7, human, truncation starting at residue 30; source: bacterially expressed and purified
T5 sequence (Q8TDX7 30-302, stated change not applied): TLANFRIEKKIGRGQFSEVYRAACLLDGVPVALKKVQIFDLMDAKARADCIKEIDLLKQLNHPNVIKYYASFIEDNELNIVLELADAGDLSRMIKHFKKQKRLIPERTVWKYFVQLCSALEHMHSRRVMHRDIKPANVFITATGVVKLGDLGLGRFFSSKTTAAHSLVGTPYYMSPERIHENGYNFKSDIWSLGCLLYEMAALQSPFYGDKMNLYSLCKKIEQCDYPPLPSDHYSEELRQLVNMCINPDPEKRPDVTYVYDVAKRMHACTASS

Measured: binding result

B1: GST-tagged C-terminal domain of human Nek9 (amino acids 706-960) (domain or fragment, UniProt Q8TD19 706-960, looked up)
chain: SLHHVPDLSCRGWHTILIVEKVLNSKTIRSNSSGLSIGTVFQSSSPGGGGGGGGGEEEDSQQESETPDPSGGFRGTMEADRGMEGLISPTEAMGNSNGASSSCPGWLRKELENAEFIPMPDSPSPLSAAFSESEKDTLPYEELQGLKVASEAPLEHKPQVEASSPRLNPAVTCAGKGTPLTPPACACSSLQVEVERLQGLVLKCLAEQQKLQQENLQIFTQLQKLNKKLEGGQQVGMHSKGTQTAKEEMEMDPKP
notes: Nek9, human, noncatalytic C-terminal domain (CTD), amino acids 706-960, cloned into pGEX-4T1; pGEX-4T1 normally places GST at the N-terminus; also called Nek9-CTD; GST-Nek9-CTD; source: E. coli Rosetta DE3, purified (glutathione Sepharose)
binds: all assays above
